A short description of the data set: soluble fraction after stress (log2 fold change); higher = more stays soluble; pooled small domains, quantitative proteomics. The note with it: stress: 75 degC.

Bounds are passed on as bounds.
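Further: 20 min heating vs room temperature control held 20 min.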

“HMKTYSEAQLKIALESLIENGKKQGYLTFQEINEILPDGIINTQDLKVIISILKETGIVVAKEKPEINIDV”: the “soluble fraction (log2)” value turned out to be 0.0761.

Take “HMKVEFTPAYLKKFKANKNAWKFYEAQTNTYKKQSAWYVISAKQEETRLRRLDLLIYDSENGIHIKPLRR”: the “soluble fraction (log2)” value is -2.74.

Take “HMKVFTEDEMLEKIKEYLSTNSYINRRVMETQFGLRQNIALKWLKHFTEIGVLRKEGERNSPIYFLNN”: the “soluble fraction (log2)” value was -0.356.

Regarding “HMKVKIFNGMKLVTNSTGLTVDGKPAALDESNADAKTYSQGLYVFIVYQSGKIAVMQDGKFLGYA”, the “soluble fraction (log2)” value was -3.34.

Consider “HMKVLNVLESEIVRLFKQGQQKDNIRDNIYKTHGQHYNNKKSFNVVFGRKWNSLLEQGFLES”, for which the “soluble fraction (log2)” value was -1.23.

“HMKVRDTQYIIEAAISKNVIRKSKNIYYYGTDIIGRSLEDAIASLNDKKNQDIKMTILQEIES”: the “soluble fraction (log2)” value is -2.14.

“HMKVSKNKIVKGMGFHHVALKAVDFDASFKFYTEGLGMKFYTSWGEGNGKIAMLDLGDGGILELFA”: the “soluble fraction (log2)” value is 0.0409.

Regarding “HMKVTGITDDILQRLKQQKGYLMLSDKSSPDEIYAAFGVSKKVFKQAIGTLFKQRQIIIEEQGIRLAN”, the “soluble fraction (log2)” value was -1.3.

As for “HMKVTQDIIFKRNGEEIKSKVLEITPDLIIYIDYSRADNIAREINISEVNMIIYKNGTSEIFSRPEE”, the “soluble fraction (log2)” value is -1.69.

“HMKVTTGIDGLIGEEGVALSDFSGKGKIMVHGEIWNAEFSGEVKKGEVLLVEKANGMTLITRKKN”: the “soluble fraction (log2)” value was at least 1.04.

For the sequence “HMKYKWLAGQLRRELLENGGKKGYKLPTELELARRYQLSRQTVRRALQLLEEEGLILRRQGSGAYATGKPP”, the “soluble fraction (log2)” value was -0.729.

With “HMKYLREEDYLPIGSIIRLDDRNFRVDHVNFMFKSVSLQDMDLTNSGQPIFRSESLPHIRELYEQQQNELV”, the “soluble fraction (log2)” value was -0.877.

For “HMKYYIYQGLGDSGELTKIAEVTDVKTYTATGLEANTKYRFAVSAYNGLRESSKSNIITVTT”, the “soluble fraction (log2)” value worked out at 0.0116.

Regarding “HMLADIGGRIADLRREVGLTQGELAEKADISVVHLSNIELGKKTPGLSTLIRIAEALDVATDWILQA”, the “soluble fraction (log2)” value was -1.38.

With “HMLAFDKDDSGAVAEIILVLGRYWMDFSHKKYPAAEGVALRHKGLSHIFTVLRPYLSTPASELIGERLRR”, the “soluble fraction (log2)” value was -0.0618.

On to “HMLAGVDTLADRELEVFQMLGRGKSTKEIAQVLNLGESTVETYRARIKEKLQLRSAAELYLRAGQWVRDHG”, for which the “soluble fraction (log2)” value was -1.09.

On to “HMLAIKKGGIFAILGPNGSGKSTFSKVLAGHPAYTVVDGDIFFKGLSILDLEPEERSHLGIFLAFQ”, for which the “soluble fraction (log2)” value is -0.286.

In the case of “HMLAKRYLVYGSGSLNSAYPDTKNIAYGIDSGKGFFLVGILTENEASKLKLKGYYVIEDFPLDFH”, the “soluble fraction (log2)” value was -1.45.

Turning to “HMLAPLAEMRGDTLDRLEKAVLELFSSRDFHEVSLQDVARRANVSLQTIYKYFGSKEALVYTMLDTLLGR”, the “soluble fraction (log2)” value is -0.416.

“HMLAQVSDEGPIRAMVEAVMARSTQQLEDYKNGKVKLRQYFFGEVMKAAKGKANPTVINKLLDEMLPETL”: the “soluble fraction (log2)” value is -0.314.

For the sequence “HMLAQYPGQVFSKEQIYNQVWKEPYYGVEDNVMSLIRRIRKKIEPDPSRPIYILTVWGIGYKFNN”, the “soluble fraction (log2)” value turned out to be 0.0812.

Regarding “HMLARFSGIALNTWTQADVERTFGPPMLVERVARFDGDIWTYRFMDDYEPRMAHIHIDRAGTVRQLVF”, the “soluble fraction (log2)” value was -2.86.

Regarding “HMLAVEKIEFVGNERIAAADLESALSALYDRPMTTISDDEIAKLLSGFSLIETFTSQAEPPHTLRVNIRE”, the “soluble fraction (log2)” value was found to be 0.083.

Regarding “HMLDEKFLSELMLALLRNHRRGLRAEVLLHKVRSNMELDGYKSLLVGVGRMEMWELAREIIDFVKAEG”, the “soluble fraction (log2)” value is -4.4.

With “HMLDGFEVGMTVMRKPGTETGFTGWPPFADKDEFPVIERIDTSDSTLLLRFNDTSWWINASLVEPSDV”, the “soluble fraction (log2)” value was -2.19.

On to “HMLDIPEVGQAVQVRGRLGTVFSVAPYDGREGRLHLVTVDYLDDARPPENDEILWEIESGARILG”, for which the “soluble fraction (log2)” value is -0.698.

“HMLDLNEVEFYAIENQLKENLKIDSKRFYELVPLIKGYQEDDIIQVLRWLIDNNRIIRHKDESLTWHS”: the “soluble fraction (log2)” value was -1.68.

Turning to “HMLDLSEEEQKIVSILEKQGNLQINSLVVEADIPVHKINAILFELEMKGVVRVLALSLIHISEP”, the “soluble fraction (log2)” value was found to be 0.149.

“HMLDPVLQREKDESFTDYHIRLFKNKDTYHIDTKTIATLLNKDQGTNYDESKWRKDFKQYERWNDYIMSKN”: the “soluble fraction (log2)” value was 0.116.

For “HMLDPYNVLGVPRDAGMDEIKKAYRKLSRTYHPDANIDNPNKAQAEEKFKQIQEAYQQIVKERTE”, the “soluble fraction (log2)” value was -0.0272.

For “HMLDQAVPVFETPKYAVSYIQNRLVEMKAASPEEAASRFYESISESERRGLFEALLIKEAEES”, the “soluble fraction (log2)” value turned out to be 0.0105.

With “HMLDQGTQSRYQIMDGVRALITGDWSSHGAGLVRELSQEVARTSGLTATSERTFFVPFSALS”, the “soluble fraction (log2)” value worked out at 0.00593.

As for “HMLDSDARRRGLIEYLSLNGYATMRQLAGEFDVSINTIQRDITYLARYYPLETAYGRYGGGVYFEQNWQ”, the “soluble fraction (log2)” value was -1.44.

Take “HMLDSGNPILPYKLSLLANVDIRTVRNAISAGELVAFKSEFDGEVYVENGSARRWLHGRRGFKPTLK”: the “soluble fraction (log2)” value was -2.56.

With “HMLDSNILTLIKELKIRHHFTATQTHQLEKVIQQAHALGLDNSEIRSLANSSPSAKSLINDLNQKLEPLRL”, the “soluble fraction (log2)” value is -1.44.

As to “HMLDTELEANLRSQRDQKLVEELDPIVTNPLRWAELTSDKQTEWTQYRTDLLNVPQQSGFPTNVTWPEKP”, the “soluble fraction (log2)” value turned out to be 0.216.

Turning to “HMLDVFSAEQVADVLSVSKRNLETWANNGKLIPDFIHGEVALYSKKQLEQFEQFQRFFNSSWDAERLIQP”, the “soluble fraction (log2)” value is -1.54.

Regarding “HMLDVGDQLVKKLKDNDSLDFHFVNSKEANKGLKDGDYYMVITIPSNFSKNATTLLDKNPKKMVLNYTTNP”, the “soluble fraction (log2)” value was -0.0273.

With “HMLEAKQIQDNWESLIKLIEDNFTGERKENLLKMYTHFQDRMMFAPASSKEHFHNAFPGGYVEHVL”, the “soluble fraction (log2)” value was -0.369.

For the sequence “HMLEDIDNSIKKEIILEHYDKMLEFHGDYGAIIFRKLLHAYSKGYTGANEFRDLVNQISDKNIMRDLIESF”, the “soluble fraction (log2)” value is -0.947.

With “HMLEEIIDVKRFLVENVRGVSEKTALAILSEFGDKTMDVLRNSPNELYRIKGMSGKRIEVIKDAIANATAS”, the “soluble fraction (log2)” value was -0.568.

As to “HMLEINTIIGNNLKKIRQEKKLTLDELAGITGVSKGMLSQIEKGTTNPTINTIWKISNGLNVPYTYLLEDD”, the “soluble fraction (log2)” value was -0.513.

On to “HMLENIVFTNKFKNKRLDVLLVDMKLVSSRQKAVSLIMRGNVFVEEERADKPGKIIKLNQTISLKK”, for which the “soluble fraction (log2)” value is -2.78.

Consider “HMLERPLKLKSHYVSAINEKVAVQFQAGEERKSIMGTLTEVNQDTIVIDDRGSVTEIPFKSIIRAKTVF”, for which the “soluble fraction (log2)” value was -0.621.

In the case of “HMLESPVEAIIRQIKQLITNGKLKPGDRLPAERLLAENFGVGRGYVREAIMKLEFFGLLKTSPQSGTYVAG”, the “soluble fraction (log2)” value was -1.39.

Consider “HMLETIDIFKVTGGEPFLSKDFLEILDLAIEKDLAKNITLMITTNASKFVKKILDKFIHFKRVEFTVS”, for which the “soluble fraction (log2)” value turned out to be 0.407.

“HMLFGKKYLGKVPNDASGRISLWNDIVKHHQELQNIRAIENFTSDNVTVAQGDTKKAVVVTDYVT”: the “soluble fraction (log2)” value was -0.286.

On to “HMLFQGDTPAENIILEILSKNGTTASDSIIKQSGLSVSDFNQAATMLEIKGLISNNGGNIWSL”, for which the “soluble fraction (log2)” value is -0.0591.

Consider “HMLFVKLSDAQRSMFGAKLARDARIQSEYAQKLPSENYEVFGKALADMLLDETHFKTFYPLLVEYGYTQPK”, for which the “soluble fraction (log2)” value was -1.32.

In the case of “HMLGDIYISIPRAKLQAEEYGHSFKRELAFLAVHGFYHLLGYDHQTKEEEEVMFGKQEEVLAEFDIKR”, the “soluble fraction (log2)” value was -0.0616.

Source of the values: the domain aggregation screens of Martell et al. (2025).
